Assays:
[1] = target: T1, full-length human U2B″ protein (human, UniProt P08579 1-225); assay: other fluorescence titration
[2] = target: T1, full-length human U2B″ protein; assay: ITC
[3] = target: T2, full-length human U1A protein (human, UniProt P09012 1-282); assay: ITC
[4] = target: T1, full-length human U2B″ protein; assay: ITC; remark: listed apart in the source
[5] = target: T1, full-length human U2B″ protein; assay: other fluorescence titration; remark: listed apart in the source
[6] = target: T2, full-length human U1A protein; assay: other fluorescence titration
[7] = target: T2, full-length human U1A protein; assay: ITC; remark: listed apart in the source

T1 sequence (P08579 whole entry): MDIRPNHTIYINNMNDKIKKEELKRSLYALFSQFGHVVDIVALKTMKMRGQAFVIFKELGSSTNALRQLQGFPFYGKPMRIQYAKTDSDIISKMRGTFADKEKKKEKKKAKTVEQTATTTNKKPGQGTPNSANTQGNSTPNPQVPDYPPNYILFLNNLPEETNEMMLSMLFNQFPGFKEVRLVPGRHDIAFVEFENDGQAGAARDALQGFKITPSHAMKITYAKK

Kd [1]: 5.1 nM | Kd [2]: 5.9 nM | Kd [3]: 830 nM | Kd [4]: 6 nM | Kd [5]: 4.4 nM | Kd [6]: 1400 nM | Kd [7]: 1000 nM
B1: human U2A′ protein, truncated form that included the first 180 amino acids (LRR domain) (domain or fragment)
chain: MVKLTAELIEQAAQYTNAVRDRELDLRGYKIPVIENLGATLDQFDAIDFSDNEIRKLDGFPLLRRLKTLLVNNNRICRIGEGLDQALPCLTELILTNNSLVELGDLDPLASLKSLTYLSILRNPVTNKKHYRLYVIYKVPQVRVLDFQKVKLKERQEAEKMFKGKRGAQLAKDIARRSKT

From publication PMC4067145 (Biochemistry, 2014)
